Consider 14 molecules from patent US20230365711A1 (Hoffmann-La Roche, published 2023).

Assay [1] has as its target T1, huNABA-avi-his (hybrid protein N-A1-B3-A2: N and A1 domains of human BGP, B3 domain of human CEA, A2 domain … (human, biotinylated at the avi tag (in vivo, co-transfected biotin ligase))).
T1 construct: also called NABA-avi-his reagent; biotinylated NABA
T1 chain: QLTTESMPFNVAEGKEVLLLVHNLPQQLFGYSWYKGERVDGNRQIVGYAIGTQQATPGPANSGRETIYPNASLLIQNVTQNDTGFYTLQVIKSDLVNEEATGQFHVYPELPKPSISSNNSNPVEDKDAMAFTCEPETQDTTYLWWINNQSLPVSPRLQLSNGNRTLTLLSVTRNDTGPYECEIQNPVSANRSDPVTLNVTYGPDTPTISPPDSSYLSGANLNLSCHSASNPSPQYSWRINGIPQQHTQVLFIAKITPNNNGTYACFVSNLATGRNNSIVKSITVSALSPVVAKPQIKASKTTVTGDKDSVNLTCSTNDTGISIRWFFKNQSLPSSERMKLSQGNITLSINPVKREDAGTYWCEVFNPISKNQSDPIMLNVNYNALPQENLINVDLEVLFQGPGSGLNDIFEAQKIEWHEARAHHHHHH
The assay can be described thus: Proteon SPR, antibody analyte on biotinylated NABA (Neutravidin chip). The source says:
(§1) Shown in FIG. 22 are Proteon (Biacore) sensorgrams obtained for the binding of the CDR-H3 antibody variants to the CEA antigen-harbouring chimeric protein NABA. […] The affinity matured precursor clone 5HFF12 and the parental antibody CH7A were included for direct comparison. All antibodies tested in this assay had 2F1 as the light chain. […] The relative affinity of each, measured in the bivalent form, is as follows: 5HFF12>CH7A (Y98A/D99Y)>CH7A (Y98A)>CH7A>CH7A (E102Q)>CH7A (D99Y)>CH7A (D99H)>CH7A (A103T)>CH7A (V101F)>CH7A (W95Y).

Assay [2] deals with T1, huNABA-avi-his (hybrid protein …). In words: Proteon SPR, antibody analyte on biotinylated NABA (Neutravidin chip); column Ka (M).
Source text: as §1

For assay [3] the target is unchanged. In words: Biacore, Fab on immobilized NABA-avi-his; column Monovalent Affinity.
The target is the same in assay [4]. In words: Biacore, column Affinity, CDR-H3 rows; antigen not named on the sheet, NABA-avi-his per paragraph 230.
Assay [5] shares this target. In words: Proteon SPR, antibody analyte on biotinylated NABA (Neutravidin chip).
For assay [6] the target is unchanged. In words: Proteon SPR, antibody analyte on biotinylated NABA (Neutravidin chip); column Ka (M).

B1: antibody with heavy chain CH7A (A103T) and light chain 2F1 (antibody, V domains shown)
VH: QVQLVQSGSELKKPGASVKVSCKASGYTFTEFGMNWVRQAPGQGLEWMGWINTKTGEATYVEEFKGRFVFSLDTSVSTAYLQISSLKAEDTAVYYCARWDFYDYVETMDYWGQGTTVTVSS
VL: DIQMTQSPSSLSASVGDRVTITCKASAAVGTYVAWYQQKPGKAPKLLIYSASYRKRGVPSRFSGSGSGTDFTLTISSLQPEDFATYYCHQYYTYPLFTFGQGTKLEIKR
notes: Bivalent form
With B1, in assay [1], the Kd was found to be 2.87 nM. For the same molecule, the kon in assay [2] is 25100 M⁻¹ s⁻¹.

B2: H3 Full (5) 8 (Fab, V domains shown)
VH: QVQLVQSGSELKKPGASVKVSCKASGYTFTEFGMNWVRQAPGQGLEWMGWINTKTGEATYVEEFKGRFVFSLDTSVSTAYLQISSLKAEDTAVYYCARWDFFEYFKTMDYWGQGTTVTVSS
VL: DIQMTQSPSSLSASVGDRVTITCKASQNVGTNVAWYQQKPGKAPKLLIYSASYRYSGVPSRFSGSGSGTDFTLTISSLQPEDFATYYCHQYYTYPLFTFGQGTKLEIK
On to B2, for which, in assay [3], the Kd is 51 nM, the koff stood at 0.0014 s⁻¹ and the kon stood at 27300 M⁻¹ s⁻¹. Also, the Kd in assay [4] was 51 nM.

B3: 3E1 (Fab, V domains shown)
VH: QVQLVQSGSELKKPGASVKVSCKASGYTFTEFGMNWVRQAPGQGLEWMGWINTKTGEATYVEEFKGRFVFSLDTSVSTAYLQISSLKAEDTAVYYCARWDFVDYVEAMDYWGQGTTVTVSS
VL: DIQMTQSPSSLSASVGDRVTITCKASQNVGTNVAWYQQKPGKAPKLLIYSASYRYSGVPSRFSGSGSGTDFTLTISSLQPEDFATYYCHQYYTYPLFTFGQGTKLEIK
As for B3, binding in assay [4] was characterised by a dissociation constant (Kd) of 1890 nM.

B4: 2D7 (Fab, V domains shown)
VH: QVQLVQSGSELKKPGASVKVSCKASGYTFTEFGMNWVRQAPGQGLEWMGWINTKTGEATYVEEFKGRFVFSLDTSVSTAYLQISSLKAEDTAVYYCARWDFYWYVEAMDYWGQGTTVTVSS
VL: DIQMTQSPSSLSASVGDRVTITCKASQNVGTNVAWYQQKPGKAPKLLIYSASYRYSGVPSRFSGSGSGTDFTLTISSLQPEDFATYYCHQYYTYPLFTFGQGTKLEIK
As for B4, the Kd in assay [4] was found to be 746 nM. Against the preceding molecule, the Kd is about 2.5-fold lower.

B5: H3 Full (5) 28 (Fab, V domains shown)
VH: QVQLVQSGSELKKPGASVKVSCKASGYTFTEFGMNWVRQAPGQGLEWMGWINTKTGEATYVEEFKGRFVFSLDTSVSTAYLQISSLKAEDTAVYYCARWDFFYYVQTMDYWGQGTTVTVSS
VL: DIQMTQSPSSLSASVGDRVTITCKASQNVGTNVAWYQQKPGKAPKLLIYSASYRYSGVPSRFSGSGSGTDFTLTISSLQPEDFATYYCHQYYTYPLFTFGQGTKLEIK
Turning to B5, in assay [4], the affinity, expressed as Kd, was 81 nM. Compared with the last molecule, the Kd is about 9.2-fold lower.

B6: 1C8 x 2F1 (Fab, V domains shown)
VH: QVQLVQSGSELKKPGASVKVSCKASGYTFTEFGMNWVRQAPGQGLEWMGWINTKTGEATYVEEFKGRFVFSLDTSVSTAYLQISSLKAEDTAVYYCARWDFYHYVEAMDYWGQGTTVTVSS
VL: DIQMTQSPSSLSASVGDRVTITCKASAAVGTYVAWYQQKPGKAPKLLIYSASYRKRGVPSRFSGSGSGTDFTLTISSLQPEDFATYYCHQYYTYPLFTFGQGTKLEIK
notes: also called 1C8 x 2F1 hc/lc, monovalent; copies: 1 + 1
As for B6, in assay [3], binding was put at a Kd of 128 nM, the koff is 0.0087 s⁻¹ and the kon was determined as 68100 M⁻¹ s⁻¹.

B7: anti-CEA antibody with heavy chain CH1A1E and light chain 2F1 (antibody, V domains shown)
VH: QVQLVQSGAEVKKPGASVKVSCKASGYTFTEFGMNWVRQAPGQGLEWMGWINTKTGEATYVEEFKGRFTMTTDTSTSTAYMELRSLRSDDTAVYYCARWDFYDYVEAMDYWGQGTTVTVSS
VL: DIQMTQSPSSLSASVGDRVTITCKASAAVGTYVAWYQQKPGKAPKLLIYSASYRKRGVPSRFSGSGSGTDFTLTISSLQPEDFATYYCHQYYTYPLFTFGQGTKLEIKR
In the case of B7, the Kd in assay [5] was 20 nM. In addition, in assay [6], the on-rate (kon) was 21100 M⁻¹ s⁻¹.

B8: antibody with heavy chain CH7A (D99H) and light chain 2F1 (antibody, V domains shown)
VH: QVQLVQSGSELKKPGASVKVSCKASGYTFTEFGMNWVRQAPGQGLEWMGWINTKTGEATYVEEFKGRFVFSLDTSVSTAYLQISSLKAEDTAVYYCARWDFYHYVEAMDYWGQGTTVTVSS
VL: DIQMTQSPSSLSASVGDRVTITCKASAAVGTYVAWYQQKPGKAPKLLIYSASYRKRGVPSRFSGSGSGTDFTLTISSLQPEDFATYYCHQYYTYPLFTFGQGTKLEIKR
notes: Bivalent form
For the molecule B8, the affinity in assay [1], expressed as Kd, was 2.25 nM. The same molecule yielded a kon in assay [2] of 86500 M⁻¹ s⁻¹.

B9: antibody with heavy chain CH7A (V101F) and light chain 2F1 (antibody, V domains shown)
VH: QVQLVQSGSELKKPGASVKVSCKASGYTFTEFGMNWVRQAPGQGLEWMGWINTKTGEATYVEEFKGRFVFSLDTSVSTAYLQISSLKAEDTAVYYCARWDFYDYFEAMDYWGQGTTVTVSS
VL: DIQMTQSPSSLSASVGDRVTITCKASAAVGTYVAWYQQKPGKAPKLLIYSASYRKRGVPSRFSGSGSGTDFTLTISSLQPEDFATYYCHQYYTYPLFTFGQGTKLEIKR
notes: Bivalent form
The molecule B9 displayed a Kd in assay [1] of 3.18 nM. The kon in assay [2] worked out at 59400 M⁻¹ s⁻¹.

B10: H3 Full (5) 27 (Fab, V domains shown)
VH: QVQLVQSGSELKKPGASVKVSCKASGYTFTEFGMNWVRQAPGQGLEWMGWINTKTGEATYVEEFKGRFVFSLDTSVSTAYLQISSLKAEDTAVYYCARWDFSYYVEAMDYWGQGTTVTVSS
VL: DIQMTQSPSSLSASVGDRVTITCKASQNVGTNVAWYQQKPGKAPKLLIYSASYRYSGVPSRFSGSGSGTDFTLTISSLQPEDFATYYCHQYYTYPLFTFGQGTKLEIK
In assay [4], B10 gave a Kd of 132 nM. In other words, the sub-micromolar range.

B11: anti-CEA antibody with heavy chain CH1A1G and light chain 2F1 (antibody, V domains shown)
VH: QVQLVQSGAEVKKPGASVKVSCKASGYTFTEFGMNWVRQAPGQGLEWMGWINTKTGEATYVEEFKGRVTMTTDTSTSTAYMEIRSLRSDDTAVYYCARWDFYDYVEAMDYWGQGTTVTVSS
VL: DIQMTQSPSSLSASVGDRVTITCKASAAVGTYVAWYQQKPGKAPKLLIYSASYRKRGVPSRFSGSGSGTDFTLTISSLQPEDFATYYCHQYYTYPLFTFGQGTKLEIKR
B11 came in with a dissociation constant (Kd) in assay [5] of 6.1 nM. In assay [6], this molecule displayed a kon of 73000 M⁻¹ s⁻¹.

B12: antibody with heavy chain CH7A (E102Q) and light chain 2F1 (antibody, V domains shown)
VH: QVQLVQSGSELKKPGASVKVSCKASGYTFTEFGMNWVRQAPGQGLEWMGWINTKTGEATYVEEFKGRFVFSLDTSVSTAYLQISSLKAEDTAVYYCARWDFYDYVQAMDYWGQGTTVTVSS
VL: DIQMTQSPSSLSASVGDRVTITCKASAAVGTYVAWYQQKPGKAPKLLIYSASYRKRGVPSRFSGSGSGTDFTLTISSLQPEDFATYYCHQYYTYPLFTFGQGTKLEIKR
notes: Bivalent form
Consider B12, for which the Kd in assay [1] stood at 1.63 nM. Also, the kon in assay [2] came out at 198000 M⁻¹ s⁻¹.

B13: antibody with heavy chain CH7A (Y98A) and light chain 2F1 (antibody, V domains shown)
VH: QVQLVQSGSELKKPGASVKVSCKASGYTFTEFGMNWVRQAPGQGLEWMGWINTKTGEATYVEEFKGRFVFSLDTSVSTAYLQISSLKAEDTAVYYCARWDFADYVEAMDYWGQGTTVTVSS
VL: DIQMTQSPSSLSASVGDRVTITCKASAAVGTYVAWYQQKPGKAPKLLIYSASYRKRGVPSRFSGSGSGTDFTLTISSLQPEDFATYYCHQYYTYPLFTFGQGTKLEIKR
notes: Bivalent form
As for B13, the Kd in assay [1] turned out to be 0.52 nM. Moreover, in assay [2], the kon worked out at 132000 M⁻¹ s⁻¹.

B14: antibody with heavy chain CH7A (D99Y) and light chain 2F1 (antibody, V domains shown)
VH: QVQLVQSGSELKKPGASVKVSCKASGYTFTEFGMNWVRQAPGQGLEWMGWINTKTGEATYVEEFKGRFVFSLDTSVSTAYLQISSLKAEDTAVYYCARWDFYYYVEAMDYWGQGTTVTVSS
VL: DIQMTQSPSSLSASVGDRVTITCKASAAVGTYVAWYQQKPGKAPKLLIYSASYRKRGVPSRFSGSGSGTDFTLTISSLQPEDFATYYCHQYYTYPLFTFGQGTKLEIKR
notes: Bivalent form
Regarding B14, the affinity in assay [1], expressed as Kd, was 1.73 nM. Besides, the kon in assay [2] was 114000 M⁻¹ s⁻¹.
